How the values were obtained:
Assay in all cases: Kinase Profiling Assay
Type in all cases: biochemical
Settings in all cases: 100 μM peptide
FGFR4(h) = FGFR4(h) (Homo sapiens, UniProt P22455)
Outline: (§1)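 Each kinase in a 266-member human panel is assayed, in duplicate, for activity in the presence of MK2 inhibitory peptides to gauge specificity.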

Fms(Y969C)(h) = Fms(Y969C)(h) (Homo sapiens, UniProt P07333, Y969C)
Outline: as §1

TAK1(h) = biological target: T1, TAK1(h) (Homo sapiens, UniProt O43318)
T1 sequence (O43318 1-303 limits assumed): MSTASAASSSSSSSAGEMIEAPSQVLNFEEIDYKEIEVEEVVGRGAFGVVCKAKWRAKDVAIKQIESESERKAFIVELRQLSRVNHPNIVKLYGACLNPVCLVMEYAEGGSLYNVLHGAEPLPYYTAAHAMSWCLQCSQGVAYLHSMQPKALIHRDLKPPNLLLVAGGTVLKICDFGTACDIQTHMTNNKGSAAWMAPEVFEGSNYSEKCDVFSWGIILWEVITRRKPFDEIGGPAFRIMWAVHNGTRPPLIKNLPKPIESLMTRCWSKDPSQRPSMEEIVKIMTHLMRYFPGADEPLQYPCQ
Outline: as §1

EphA4(h) = EphA4(h) (Homo sapiens, UniProt P54764)
EphA4(h), sequence (P54764 20-986): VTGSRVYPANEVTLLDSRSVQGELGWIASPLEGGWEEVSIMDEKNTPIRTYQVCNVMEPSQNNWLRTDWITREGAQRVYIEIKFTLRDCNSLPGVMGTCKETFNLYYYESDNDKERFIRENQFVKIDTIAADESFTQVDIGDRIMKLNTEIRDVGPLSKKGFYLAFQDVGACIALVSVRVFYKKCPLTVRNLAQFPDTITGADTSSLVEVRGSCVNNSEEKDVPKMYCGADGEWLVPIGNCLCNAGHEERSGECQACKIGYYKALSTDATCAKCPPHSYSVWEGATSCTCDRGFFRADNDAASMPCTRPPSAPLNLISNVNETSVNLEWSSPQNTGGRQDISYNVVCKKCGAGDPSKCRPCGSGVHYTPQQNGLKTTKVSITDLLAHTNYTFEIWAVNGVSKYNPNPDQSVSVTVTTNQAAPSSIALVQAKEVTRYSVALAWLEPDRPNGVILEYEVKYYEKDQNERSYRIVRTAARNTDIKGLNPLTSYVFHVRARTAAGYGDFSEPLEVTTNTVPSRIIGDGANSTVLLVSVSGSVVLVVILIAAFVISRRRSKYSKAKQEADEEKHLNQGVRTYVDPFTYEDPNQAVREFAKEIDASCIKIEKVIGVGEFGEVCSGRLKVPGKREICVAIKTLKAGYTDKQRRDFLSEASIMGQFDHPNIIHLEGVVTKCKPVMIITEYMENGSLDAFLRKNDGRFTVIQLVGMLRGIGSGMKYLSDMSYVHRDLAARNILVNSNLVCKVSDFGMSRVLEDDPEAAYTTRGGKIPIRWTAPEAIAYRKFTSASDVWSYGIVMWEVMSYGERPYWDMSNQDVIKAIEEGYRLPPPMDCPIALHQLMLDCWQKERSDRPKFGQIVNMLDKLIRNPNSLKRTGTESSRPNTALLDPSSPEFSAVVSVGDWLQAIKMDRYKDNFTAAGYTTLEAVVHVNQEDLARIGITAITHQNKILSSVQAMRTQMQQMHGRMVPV
Outline: as §1

Lyn(h) = Lyn(h) (Homo sapiens, UniProt P07948)
Lyn(h), sequence (P07948 whole entry): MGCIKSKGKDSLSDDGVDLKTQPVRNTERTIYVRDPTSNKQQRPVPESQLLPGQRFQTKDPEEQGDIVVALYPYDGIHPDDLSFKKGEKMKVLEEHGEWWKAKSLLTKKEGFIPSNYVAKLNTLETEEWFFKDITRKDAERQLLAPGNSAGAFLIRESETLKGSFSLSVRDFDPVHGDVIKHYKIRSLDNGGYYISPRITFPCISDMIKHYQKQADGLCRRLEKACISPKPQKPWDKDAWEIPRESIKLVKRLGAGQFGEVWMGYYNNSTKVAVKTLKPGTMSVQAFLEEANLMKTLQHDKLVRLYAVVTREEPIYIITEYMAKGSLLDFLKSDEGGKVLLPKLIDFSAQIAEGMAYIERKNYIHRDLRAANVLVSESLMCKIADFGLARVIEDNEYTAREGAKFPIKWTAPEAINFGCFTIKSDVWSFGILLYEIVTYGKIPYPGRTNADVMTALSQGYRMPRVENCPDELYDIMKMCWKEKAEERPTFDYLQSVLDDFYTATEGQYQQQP
Outline: as §1

EphB1(h) = biological target: T2, EphB1(h) (Homo sapiens, UniProt P54762)
T2 sequence (P54762 18-984): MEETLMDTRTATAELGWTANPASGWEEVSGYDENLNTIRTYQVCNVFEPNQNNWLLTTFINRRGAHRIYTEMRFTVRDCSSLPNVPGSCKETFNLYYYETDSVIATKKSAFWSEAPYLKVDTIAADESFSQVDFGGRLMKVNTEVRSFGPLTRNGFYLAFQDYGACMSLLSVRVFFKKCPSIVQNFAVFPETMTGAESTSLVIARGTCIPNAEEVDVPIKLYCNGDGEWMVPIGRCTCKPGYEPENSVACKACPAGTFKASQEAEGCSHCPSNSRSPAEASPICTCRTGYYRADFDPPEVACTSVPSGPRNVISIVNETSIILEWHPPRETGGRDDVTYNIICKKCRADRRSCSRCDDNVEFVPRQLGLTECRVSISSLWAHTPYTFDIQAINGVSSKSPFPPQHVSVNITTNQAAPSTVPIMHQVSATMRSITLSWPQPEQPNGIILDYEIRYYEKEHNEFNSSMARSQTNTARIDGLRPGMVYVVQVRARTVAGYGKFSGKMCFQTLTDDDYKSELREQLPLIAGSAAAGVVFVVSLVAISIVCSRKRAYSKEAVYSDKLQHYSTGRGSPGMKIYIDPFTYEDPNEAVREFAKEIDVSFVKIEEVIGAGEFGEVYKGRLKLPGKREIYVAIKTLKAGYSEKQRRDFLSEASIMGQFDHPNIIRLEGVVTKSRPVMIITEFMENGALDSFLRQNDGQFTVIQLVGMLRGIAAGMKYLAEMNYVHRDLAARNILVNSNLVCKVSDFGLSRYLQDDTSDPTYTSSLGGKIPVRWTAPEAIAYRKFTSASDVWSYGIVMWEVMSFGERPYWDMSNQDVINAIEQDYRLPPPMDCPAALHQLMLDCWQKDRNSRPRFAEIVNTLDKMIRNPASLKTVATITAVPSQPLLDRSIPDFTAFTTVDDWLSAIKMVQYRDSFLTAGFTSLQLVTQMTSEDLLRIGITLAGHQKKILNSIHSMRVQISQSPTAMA
Outline: as §1

SAPK4(h) = biological target: T3, SAPK4(h) (Homo sapiens, UniProt O15264)
T3 sequence (O15264 1-365): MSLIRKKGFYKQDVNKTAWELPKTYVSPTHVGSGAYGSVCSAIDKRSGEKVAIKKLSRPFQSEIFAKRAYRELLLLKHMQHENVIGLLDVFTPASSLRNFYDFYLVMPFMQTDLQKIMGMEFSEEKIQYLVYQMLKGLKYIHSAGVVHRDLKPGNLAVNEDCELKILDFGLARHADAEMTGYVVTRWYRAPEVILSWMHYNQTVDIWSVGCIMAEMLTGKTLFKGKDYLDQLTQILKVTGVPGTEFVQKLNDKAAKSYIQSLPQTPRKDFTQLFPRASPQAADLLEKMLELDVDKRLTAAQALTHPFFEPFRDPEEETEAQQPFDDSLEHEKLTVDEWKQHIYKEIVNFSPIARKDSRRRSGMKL
Outline: as §1

F1t4(h) = F1t4(h) (Homo sapiens, UniProt P35916)
F1t4(h), sequence (P35916 25-1363): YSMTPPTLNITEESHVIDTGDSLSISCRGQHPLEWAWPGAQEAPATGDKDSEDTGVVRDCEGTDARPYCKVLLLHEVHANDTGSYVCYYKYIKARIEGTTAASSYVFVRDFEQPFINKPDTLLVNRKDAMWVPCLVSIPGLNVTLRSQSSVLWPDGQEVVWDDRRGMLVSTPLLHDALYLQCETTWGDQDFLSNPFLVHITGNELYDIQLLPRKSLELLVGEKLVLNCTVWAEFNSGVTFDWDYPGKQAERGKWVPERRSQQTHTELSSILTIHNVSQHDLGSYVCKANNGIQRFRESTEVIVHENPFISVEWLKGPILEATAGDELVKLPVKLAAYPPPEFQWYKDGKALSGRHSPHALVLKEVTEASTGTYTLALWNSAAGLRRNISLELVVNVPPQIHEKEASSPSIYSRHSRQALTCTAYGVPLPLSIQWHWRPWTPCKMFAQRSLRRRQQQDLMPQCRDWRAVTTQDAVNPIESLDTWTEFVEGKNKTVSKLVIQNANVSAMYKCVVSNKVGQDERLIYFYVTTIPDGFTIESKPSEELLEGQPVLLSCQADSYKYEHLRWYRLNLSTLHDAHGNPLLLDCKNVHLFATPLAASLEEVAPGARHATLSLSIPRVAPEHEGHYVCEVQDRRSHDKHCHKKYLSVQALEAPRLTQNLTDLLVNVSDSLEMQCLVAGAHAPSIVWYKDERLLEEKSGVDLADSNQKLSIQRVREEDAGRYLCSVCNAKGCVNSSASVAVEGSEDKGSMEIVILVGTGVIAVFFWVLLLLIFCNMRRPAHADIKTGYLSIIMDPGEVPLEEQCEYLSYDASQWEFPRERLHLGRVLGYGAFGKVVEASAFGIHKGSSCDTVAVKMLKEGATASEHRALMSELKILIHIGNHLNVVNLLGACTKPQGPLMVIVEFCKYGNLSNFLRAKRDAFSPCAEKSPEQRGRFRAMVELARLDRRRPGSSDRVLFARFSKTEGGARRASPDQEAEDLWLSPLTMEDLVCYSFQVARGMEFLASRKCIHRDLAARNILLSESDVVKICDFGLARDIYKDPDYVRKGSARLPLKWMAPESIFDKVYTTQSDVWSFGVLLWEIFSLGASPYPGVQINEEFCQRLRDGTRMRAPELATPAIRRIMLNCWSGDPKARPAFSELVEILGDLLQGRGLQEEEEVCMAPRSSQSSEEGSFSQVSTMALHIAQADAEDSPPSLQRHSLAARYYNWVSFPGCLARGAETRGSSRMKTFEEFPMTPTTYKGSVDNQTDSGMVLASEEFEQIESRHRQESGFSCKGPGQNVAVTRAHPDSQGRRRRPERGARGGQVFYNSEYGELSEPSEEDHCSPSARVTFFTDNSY
Outline: as §1

PrKX(h) = biological target: T4, PrKX(h) (Homo sapiens, UniProt P51817)
T4 construct: purchased Millipore (IC50 Profiler Express service)
T4 sequence (P51817 1-358): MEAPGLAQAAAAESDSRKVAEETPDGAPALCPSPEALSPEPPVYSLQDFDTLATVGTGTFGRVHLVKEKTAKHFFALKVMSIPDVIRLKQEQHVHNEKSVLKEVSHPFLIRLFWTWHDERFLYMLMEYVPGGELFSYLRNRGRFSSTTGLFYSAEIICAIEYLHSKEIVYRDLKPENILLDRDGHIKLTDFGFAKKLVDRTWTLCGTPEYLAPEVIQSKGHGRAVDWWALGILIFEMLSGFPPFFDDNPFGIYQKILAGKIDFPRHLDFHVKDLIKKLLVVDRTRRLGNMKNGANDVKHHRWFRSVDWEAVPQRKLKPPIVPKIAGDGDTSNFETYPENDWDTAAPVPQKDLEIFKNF
Outline: as §1

MLCK(h) = MLCK(h) (Homo sapiens, UniProt Q9H1R3)
MLCK(h), sequence (Q9H1R3 2-596 limits assumed): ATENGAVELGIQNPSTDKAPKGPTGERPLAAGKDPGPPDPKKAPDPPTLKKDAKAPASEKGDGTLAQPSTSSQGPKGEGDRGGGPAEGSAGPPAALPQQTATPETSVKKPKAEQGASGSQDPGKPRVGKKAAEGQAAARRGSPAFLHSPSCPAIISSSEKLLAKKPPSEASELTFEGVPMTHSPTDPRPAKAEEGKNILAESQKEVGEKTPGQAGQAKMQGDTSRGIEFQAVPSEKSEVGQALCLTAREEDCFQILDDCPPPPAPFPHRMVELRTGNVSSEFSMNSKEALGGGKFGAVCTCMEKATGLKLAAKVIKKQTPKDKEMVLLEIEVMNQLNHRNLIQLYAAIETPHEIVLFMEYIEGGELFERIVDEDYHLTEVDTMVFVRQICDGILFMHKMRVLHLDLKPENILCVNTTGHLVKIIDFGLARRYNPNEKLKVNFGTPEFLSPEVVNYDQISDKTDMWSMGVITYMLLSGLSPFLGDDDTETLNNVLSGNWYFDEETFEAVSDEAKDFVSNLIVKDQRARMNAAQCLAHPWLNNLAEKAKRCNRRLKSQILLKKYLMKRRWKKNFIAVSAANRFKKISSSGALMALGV
Outline: as §1

Sequence	FGFR4(h) % activity (FGFR4(h))	Fms(Y969C)(h) % activity (Fms(Y969C)(h))	TAK1(h) % activity (TAK1(h))	EphA4(h) % activity (EphA4(h))	Lyn(h) % activity (Lyn(h))	EphB1(h) % activity (EphB1(h))	SAPK4(h) % activity (SAPK4(h))	F1t4(h) % activity (F1t4(h))	PrKX(h) % activity (PrKX(h))	MLCK(h) % activity (MLCK(h))
YARAAARQARAKALNRQLGVA (Mammalian) [MMI-0200]	75%	88%	124%	127%	98%	95%				
HRRIKAWLKKIKALARQLGVAA (Mammalian) [MMI-0500]	3%			48%	31%	37%	48%	73%	57%	0%
KAFAKLAARLYRKALARQLGVAA [MMI-0400]	19%	91%	177%	65%	3%	58%	91%	89%	76%	1%
FAKLAARLYRKALARQLGVAA [MMI-0300]	28%	72%	122%	88%	69%	44%	96%	83%	61%	2%

Source: patent publication US10562947B2, “Compositions and methods for preventing or treating diseases, conditions or processes characterized by aberrant fibroblast proliferation and extracellular matrix deposition” (MOERAE MATRIX, INC., priority 2011, dated 2020)
